Paper PMC11307329

Test system: T1, XisF4 (native excisionase) (Pseudomonas aeruginosa PAO1), ORF:74e9b1d3
T1 sequence: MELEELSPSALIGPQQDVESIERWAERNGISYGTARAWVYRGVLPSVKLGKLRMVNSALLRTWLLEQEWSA
Test: EMSA

GCTCATTCCGTCACTATTCGTGGCATTAGCCATACGCAGCTAGAGAAATAATTACCCTGGAGAAATTATTTCCCCAAAGCCACGTCAGGGCAACTATTTCCCCGGAATAAATTTCTATATGAGCACGTCAGCCGATAGAGCAAGACTATTAATCAAGAAAATCGGCCCCAAAAAGGTCAGCCTTCACGGGGGCGATTACGAGAGATGGAAAAGCGTCAGCAAAGGCGCGATTCGCGTGAGCACGGAAGAAATCGACGTCCTAGTAAAAATTTTCCCTAATTACGCATTATGGATTGCAAG (double strand) [xisF4 promoter]
binding: binds

AGCTTTCATGAATCTCTCCGTTGATTATGTATAGGCCTAACGCCTGAACCTCAACAAGCACTTACCATGCCAAATATCAAACCGCGCCACGATCAAGGAAACTGGGTTCCTTTCTCGATGAGAGTCAAACTTAAAACGGACAGGATGTGACATTTTTTGACAGCTGGATTTCCTCGATTTGGCAGCCCCTGTTATCTGCGTTATAAGGCACCTCAATAGCCCTTCTGCGATTCCTTCCCCATG (double strand) [pilA promoter]
binding: binds

CGGTCGCCTTGTTCATGAGAAAAGCCTTTTAAAACAGTGAGTTGCGCAATAATTTCAGCCGTACCTCTTTCGAGGTAGGGGCGCGCATCTAGGCACGGAACGGCCGGTATTTCATTGATTCCTATCAAATTTGCATAGGAACACCTTCCCTAGGCTCTCGCTGAACGCTGTCCGTGCAGAGAGTTTAGCC (double strand) [narL promoter]
binding: binds

CGCGCAGACTGTATCGAAGTATTTCCGACGCCTGGCGTTCTGTGATCGATTCGGCTCGGTTGGAGTGCGCTGCCGCACGCTTTACAGCCGGACGGAGCGGGGCACCGGATCTACTGCAAAAGCTGATAGTTGTCTTCCCGGGTGACGGCGTTGCACGGTCCTGCGGCGTGCAACCCGGCCTGGGCGAAATACCGGCGGAGCGGACCAGGCTATCCCGTCGGAGGCGATGTCGCCGGGCTGCTGGCTTTCAAGGTTTCCCTTCGATGACCAGGAGCTACCCATG (double strand) [lasA promoter]
binding: binds
